Three substances from patent publication US10087225B2, “Formulation of MK2 inhibitor peptides” (MOERAE MATRIX, INC., priority 2015, dated 2018) can be followed below.

Among the targets are Ax1(h) (Homo sapiens, UniProt P30530); GRK6(h) (Homo sapiens, UniProt P43250); MELK(h) (Homo sapiens, UniProt Q14680).
Common to all, as to assay: Kinase Profiling Assay
Common to all, as to format: biochemical
Conditions in all cases: for % activity: 100 μM

A further experiment addresses T1, NEK3(h) (Homo sapiens, UniProt P51956).
T1 sequence (P51956 1-506): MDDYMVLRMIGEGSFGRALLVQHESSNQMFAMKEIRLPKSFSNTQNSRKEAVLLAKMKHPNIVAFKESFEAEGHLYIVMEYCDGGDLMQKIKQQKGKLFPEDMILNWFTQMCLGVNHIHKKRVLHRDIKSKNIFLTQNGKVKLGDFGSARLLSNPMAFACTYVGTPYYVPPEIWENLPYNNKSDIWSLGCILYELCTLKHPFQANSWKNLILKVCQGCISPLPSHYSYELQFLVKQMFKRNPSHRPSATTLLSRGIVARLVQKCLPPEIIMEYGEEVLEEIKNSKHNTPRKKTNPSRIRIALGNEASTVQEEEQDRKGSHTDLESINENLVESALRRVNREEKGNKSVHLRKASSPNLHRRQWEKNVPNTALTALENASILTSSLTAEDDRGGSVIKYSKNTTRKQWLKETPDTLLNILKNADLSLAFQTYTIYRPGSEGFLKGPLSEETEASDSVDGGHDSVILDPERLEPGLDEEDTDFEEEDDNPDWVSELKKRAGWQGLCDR

The target in a further experiment is T2, PKCμ(h) (Homo sapiens, UniProt Q15139).
T2 sequence (Q15139 1-912): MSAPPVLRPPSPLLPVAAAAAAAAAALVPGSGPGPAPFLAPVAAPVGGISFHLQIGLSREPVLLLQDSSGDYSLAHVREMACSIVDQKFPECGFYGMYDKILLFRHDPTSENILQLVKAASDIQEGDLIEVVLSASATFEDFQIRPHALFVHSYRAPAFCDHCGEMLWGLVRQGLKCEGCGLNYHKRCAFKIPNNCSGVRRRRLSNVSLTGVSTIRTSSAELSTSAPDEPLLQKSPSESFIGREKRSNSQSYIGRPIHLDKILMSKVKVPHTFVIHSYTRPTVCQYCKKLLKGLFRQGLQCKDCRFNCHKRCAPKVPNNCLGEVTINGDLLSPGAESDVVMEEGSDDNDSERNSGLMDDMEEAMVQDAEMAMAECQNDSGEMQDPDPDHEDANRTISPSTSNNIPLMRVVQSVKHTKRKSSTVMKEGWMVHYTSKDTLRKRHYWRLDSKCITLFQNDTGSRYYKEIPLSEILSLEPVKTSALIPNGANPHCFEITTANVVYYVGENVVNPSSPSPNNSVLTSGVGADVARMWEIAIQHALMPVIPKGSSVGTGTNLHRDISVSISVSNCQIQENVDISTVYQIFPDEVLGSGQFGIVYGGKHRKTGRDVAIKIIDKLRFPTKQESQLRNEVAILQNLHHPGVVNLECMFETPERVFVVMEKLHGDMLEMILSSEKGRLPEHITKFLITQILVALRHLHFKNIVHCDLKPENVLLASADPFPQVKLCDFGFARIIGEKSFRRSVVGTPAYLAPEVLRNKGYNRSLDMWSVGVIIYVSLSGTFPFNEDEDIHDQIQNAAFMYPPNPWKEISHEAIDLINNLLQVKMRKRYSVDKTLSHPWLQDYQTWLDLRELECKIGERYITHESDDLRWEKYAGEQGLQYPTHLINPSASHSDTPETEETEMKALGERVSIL

The target in another experiment is T3, PKCζ(h) (Homo sapiens, UniProt Q05513).
T3 sequence (Q05513 1-592): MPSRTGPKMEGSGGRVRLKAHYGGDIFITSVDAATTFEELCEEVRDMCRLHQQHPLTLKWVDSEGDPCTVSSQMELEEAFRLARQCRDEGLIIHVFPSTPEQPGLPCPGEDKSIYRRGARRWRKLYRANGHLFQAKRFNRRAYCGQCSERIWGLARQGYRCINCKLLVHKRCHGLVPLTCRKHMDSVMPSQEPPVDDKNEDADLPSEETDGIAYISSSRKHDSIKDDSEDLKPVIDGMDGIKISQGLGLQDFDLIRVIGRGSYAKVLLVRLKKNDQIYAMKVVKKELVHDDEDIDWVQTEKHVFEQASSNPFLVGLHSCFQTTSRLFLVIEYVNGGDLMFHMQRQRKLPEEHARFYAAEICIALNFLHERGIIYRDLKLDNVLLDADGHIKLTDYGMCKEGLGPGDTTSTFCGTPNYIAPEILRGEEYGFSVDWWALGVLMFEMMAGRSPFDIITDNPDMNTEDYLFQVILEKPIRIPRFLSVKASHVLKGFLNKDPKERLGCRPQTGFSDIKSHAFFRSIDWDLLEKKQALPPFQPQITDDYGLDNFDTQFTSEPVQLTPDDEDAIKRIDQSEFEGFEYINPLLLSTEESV

In another experiment the target is T4, ULK3(h) (Homo sapiens, UniProt Q6PHR2).
T4 sequence (Q6PHR2 1-472): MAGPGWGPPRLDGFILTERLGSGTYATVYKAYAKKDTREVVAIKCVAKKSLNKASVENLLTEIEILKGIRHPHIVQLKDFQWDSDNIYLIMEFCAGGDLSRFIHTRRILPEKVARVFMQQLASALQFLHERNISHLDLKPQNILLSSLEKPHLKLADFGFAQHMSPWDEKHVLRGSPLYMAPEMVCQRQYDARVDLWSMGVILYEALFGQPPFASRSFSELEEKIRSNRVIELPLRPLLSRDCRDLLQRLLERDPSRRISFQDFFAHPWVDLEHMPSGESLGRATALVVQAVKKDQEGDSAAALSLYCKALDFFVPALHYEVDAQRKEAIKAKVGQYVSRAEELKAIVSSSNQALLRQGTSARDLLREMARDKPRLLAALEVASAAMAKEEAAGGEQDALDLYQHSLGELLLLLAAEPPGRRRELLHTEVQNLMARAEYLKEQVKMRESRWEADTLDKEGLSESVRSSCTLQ

Sequence of GRK6(h) (P43250 whole entry): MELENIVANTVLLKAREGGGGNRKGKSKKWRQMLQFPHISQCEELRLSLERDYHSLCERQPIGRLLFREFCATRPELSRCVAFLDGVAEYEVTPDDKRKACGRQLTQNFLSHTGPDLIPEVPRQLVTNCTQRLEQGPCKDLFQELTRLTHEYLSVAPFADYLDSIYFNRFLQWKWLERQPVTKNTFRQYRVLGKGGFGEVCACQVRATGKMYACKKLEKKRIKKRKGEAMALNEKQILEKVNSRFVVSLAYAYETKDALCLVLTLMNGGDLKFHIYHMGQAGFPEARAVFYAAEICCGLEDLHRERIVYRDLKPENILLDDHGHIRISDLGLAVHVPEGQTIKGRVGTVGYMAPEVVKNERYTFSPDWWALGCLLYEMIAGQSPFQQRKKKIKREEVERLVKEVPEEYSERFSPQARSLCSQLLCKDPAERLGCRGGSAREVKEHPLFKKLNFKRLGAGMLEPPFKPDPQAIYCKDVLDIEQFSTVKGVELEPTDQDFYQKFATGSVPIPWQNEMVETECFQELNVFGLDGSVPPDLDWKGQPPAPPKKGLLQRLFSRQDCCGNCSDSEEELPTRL
Sequence of MELK(h) (Q14680 whole entry): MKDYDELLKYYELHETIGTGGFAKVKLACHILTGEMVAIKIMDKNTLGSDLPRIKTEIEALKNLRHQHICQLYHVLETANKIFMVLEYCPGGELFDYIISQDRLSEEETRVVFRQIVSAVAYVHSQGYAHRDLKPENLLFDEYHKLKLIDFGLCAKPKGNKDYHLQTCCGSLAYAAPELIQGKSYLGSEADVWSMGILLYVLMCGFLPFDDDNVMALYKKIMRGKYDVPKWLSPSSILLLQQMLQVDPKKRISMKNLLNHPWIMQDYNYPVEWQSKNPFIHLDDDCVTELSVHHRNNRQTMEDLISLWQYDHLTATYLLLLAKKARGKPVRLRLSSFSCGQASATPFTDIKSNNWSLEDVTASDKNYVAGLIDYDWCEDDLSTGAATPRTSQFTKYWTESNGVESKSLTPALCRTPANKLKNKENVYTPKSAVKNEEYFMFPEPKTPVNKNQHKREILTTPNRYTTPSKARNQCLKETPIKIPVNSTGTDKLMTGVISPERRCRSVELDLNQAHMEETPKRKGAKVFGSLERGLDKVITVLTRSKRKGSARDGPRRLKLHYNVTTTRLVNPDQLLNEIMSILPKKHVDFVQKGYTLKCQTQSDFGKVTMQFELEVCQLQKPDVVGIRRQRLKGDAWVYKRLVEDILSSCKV

On to H-YARAAARQARAKALARQLGVAA-OH [MMI-0100], for which the activity at 100 µM was 81% on Ax1(h); 131% at GRK6(h); 74% on MELK(h); 100% on NEK3(h); 79% on PKCμ(h); 82% on PKCζ(h). Also, at ULK3(h), the activity at 100 µM is 142%.
In the case of “HRRIKAWLKKIKALARQLGVAA (Mammalian) [MMI-0500]”, the “% activity” value was determined as 12% with Ax1(h); 174% with GRK6(h); 0% with MELK(h); 20% with NEK3(h); 10% with PKCμ(h); 7% with PKCζ(h). In addition, in the experiment with ULK3(h), the “% activity” value came out at 177%.
“YARAAARQARAKALNRQLGVA (Mammalian) [MMI-0200]”: the “% activity” value in the experiment with Ax1(h) came to 99%; in the experiment with GRK6(h) it was 132%; with MELK(h), 59%; with NEK3(h), 100%; with PKCμ(h) it was 73%; with PKCζ(h) it was 98%. For the same substance, the “% activity” value in the experiment with ULK3(h) turned out to be 164%.
